How the values were obtained:
Assay in all cases: ELISA during and after library selection
human serum albumin = target: T1, human serum albumin (human, UniProt P02768 25-609)
T1 construct: also called HSA

murine serum albumin = target: T2, murine serum albumin (murine, UniProt P07724 25-608)
T2 construct: also called MSA; mouse serum albumin

bovine serum albumin = target: T3, bovine serum albumin (bovine, UniProt P02769 25-607)
T3 construct: also called BSA

Measured: binding result

T1 sequence (P02768 25-609 limits assumed): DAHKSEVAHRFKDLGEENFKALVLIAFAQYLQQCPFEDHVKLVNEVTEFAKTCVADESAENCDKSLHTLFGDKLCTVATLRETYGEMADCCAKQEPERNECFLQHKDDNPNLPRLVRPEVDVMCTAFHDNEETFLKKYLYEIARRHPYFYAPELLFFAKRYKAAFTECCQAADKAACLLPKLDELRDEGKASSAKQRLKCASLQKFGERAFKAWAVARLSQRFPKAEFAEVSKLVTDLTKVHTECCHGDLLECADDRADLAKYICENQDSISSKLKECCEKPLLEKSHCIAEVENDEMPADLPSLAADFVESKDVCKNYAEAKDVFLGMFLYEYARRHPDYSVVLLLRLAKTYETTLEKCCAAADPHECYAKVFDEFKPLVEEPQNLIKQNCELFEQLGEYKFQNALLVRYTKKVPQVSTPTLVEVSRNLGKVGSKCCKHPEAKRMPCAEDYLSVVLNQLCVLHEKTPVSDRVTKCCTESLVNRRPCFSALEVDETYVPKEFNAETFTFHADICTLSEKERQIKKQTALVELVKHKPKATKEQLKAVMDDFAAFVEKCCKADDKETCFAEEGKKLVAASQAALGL
T3 sequence (P02769 25-607 limits assumed): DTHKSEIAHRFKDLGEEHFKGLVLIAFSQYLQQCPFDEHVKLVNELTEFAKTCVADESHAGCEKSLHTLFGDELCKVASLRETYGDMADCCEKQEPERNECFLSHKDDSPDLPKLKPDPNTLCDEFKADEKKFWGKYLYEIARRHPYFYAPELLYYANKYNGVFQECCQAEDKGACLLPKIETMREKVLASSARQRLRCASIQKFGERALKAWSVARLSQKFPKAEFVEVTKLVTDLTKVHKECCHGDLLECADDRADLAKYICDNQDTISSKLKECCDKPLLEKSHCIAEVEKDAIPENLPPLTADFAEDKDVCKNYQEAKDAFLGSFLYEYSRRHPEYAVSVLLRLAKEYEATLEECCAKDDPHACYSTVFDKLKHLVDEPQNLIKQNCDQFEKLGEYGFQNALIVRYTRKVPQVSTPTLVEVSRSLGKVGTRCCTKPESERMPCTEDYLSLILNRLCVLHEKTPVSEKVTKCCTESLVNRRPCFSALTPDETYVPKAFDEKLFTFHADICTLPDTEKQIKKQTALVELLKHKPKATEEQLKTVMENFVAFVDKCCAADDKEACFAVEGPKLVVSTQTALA

B1: affitin Aff03 (designed binder)
chain: VKVKFGHMGEEKEVDTSKIYAVNRAGKFVHFAYDDNGKFGSGSVPEKDAPKELLDMLARAEREK
no binding: all assays above

— patent publication US20230203129A1 (BRACCO IMAGING S P A, published 2023)
